Measurements as given in paper PMC3953333, “Sterol Regulatory Element-Binding Proteins Are Regulators of the Rat Thyroid Peroxidase Gene in Thyroid Cells”.

T1: nuclear SREBP-1c (nSREBP-1c) (rat, UniProt P56720-1 1-456)
T1 sequence: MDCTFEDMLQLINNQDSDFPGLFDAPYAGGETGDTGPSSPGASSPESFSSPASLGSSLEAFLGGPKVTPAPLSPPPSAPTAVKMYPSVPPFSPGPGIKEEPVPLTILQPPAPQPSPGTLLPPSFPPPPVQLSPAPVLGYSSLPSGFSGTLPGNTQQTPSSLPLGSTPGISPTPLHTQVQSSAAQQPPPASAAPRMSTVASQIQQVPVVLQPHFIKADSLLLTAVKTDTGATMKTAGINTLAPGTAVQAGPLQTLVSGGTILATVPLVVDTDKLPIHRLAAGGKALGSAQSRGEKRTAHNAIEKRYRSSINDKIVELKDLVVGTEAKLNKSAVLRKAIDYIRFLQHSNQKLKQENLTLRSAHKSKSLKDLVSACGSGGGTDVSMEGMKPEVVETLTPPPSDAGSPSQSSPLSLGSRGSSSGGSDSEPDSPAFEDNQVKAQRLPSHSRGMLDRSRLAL

T2: nuclear SREBP-2 (nSREBP-2) (rat, UniProt Q3T1I5 1-476)
T2 sequence: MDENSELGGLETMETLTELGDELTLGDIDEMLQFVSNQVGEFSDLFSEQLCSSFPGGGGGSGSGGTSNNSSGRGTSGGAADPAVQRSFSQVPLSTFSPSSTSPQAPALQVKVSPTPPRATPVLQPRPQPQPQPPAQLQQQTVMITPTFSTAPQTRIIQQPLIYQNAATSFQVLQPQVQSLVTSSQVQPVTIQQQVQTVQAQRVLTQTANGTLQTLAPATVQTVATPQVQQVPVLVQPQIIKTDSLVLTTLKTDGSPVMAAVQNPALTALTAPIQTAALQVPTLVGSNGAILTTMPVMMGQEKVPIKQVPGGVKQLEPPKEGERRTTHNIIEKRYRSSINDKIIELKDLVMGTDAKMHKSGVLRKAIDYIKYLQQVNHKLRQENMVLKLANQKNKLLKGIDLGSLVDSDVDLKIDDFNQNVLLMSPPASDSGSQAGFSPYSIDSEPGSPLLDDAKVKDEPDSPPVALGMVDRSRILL


Legend:
[1] = biological target: T1, nuclear SREBP-1c (nSREBP-1c); test: EMSA; EMSA with DIG-labeled annealed oligonucleotides (Roche DIG Gel Shift Kit, 2nd Generation) and TNT T7 in vitro-translated proteins; buffer, salt, pH and temperature not stated (ref 19); conditions: protein: ivt, chain copies: 2, label: DIG end-label
[2] = biological target: T2, nuclear SREBP-2 (nSREBP-2); test: as above; conditions: protein: ivt, chain copies: 2, label: DIG end-label
[3] = 5' overhangs 4 nt (AGCT / TCGA)
[4] = 5' overhangs 4 nt (GATC / TCGA)

Binder	binding result [1, 3]	binding result [2, 3]	binding result [1, 4]	binding result [2, 4]
rTPO VI mut5 (dsDNA) DNA 1: AGCTCAGGCGGAAACTCAGGTGGGTCCTCCCAAGT DNA 2: TCGAACTTGGGAGGACCCACCTGAGTTTCCGCCTG	binds	binds		
rTPO III mut2 (dsDNA) DNA 1: AGCTGATAATCAGAAAGTCGTATTAATACT DNA 2: TCGAAGTATTAATACGACTTTCTGATTATC	no binding	no binding		
rTPO IVmut (dsDNA) DNA 1: AGCTATACTGTGTTACTTACCATA DNA 2: TCGATATGGTAAGTAACACAGTAT	no binding			
rTPO VI mut4 (dsDNA) DNA 1: AGCTCAGGCCTCTCAGATAGTGGGTCCTCCCAAGT DNA 2: TCGAACTTGGGAGGACCCACTATCTGAGAGGCCTG	no binding	no binding		
rTPO VI mut6 (dsDNA) DNA 1: AGCTTGTAACTCTCCTCAGGTGGGTCCTCCCAAGT DNA 2: TCGAACTTGGGAGGACCCACCTGAGGAGAGTTACA	binds	binds		
rTPO IV (dsDNA) DNA 1: AGCTATACTGTGGGATGTACCATA DNA 2: TCGATATGGTACATCCCACAGTAT	binds	no binding		
rTPO V (dsDNA) DNA 1: AGCTGTGGGATGTACCATAAATACCCAGG DNA 2: TCGACCTGGGTATTTATGGTACATCCCAC	no binding	no binding		
rTPO I (dsDNA) DNA 1: GATCTCTGGGGTTGCAGTGGGGAAGA DNA 2: TCGATCTTCCCCACTGCAACCCCAGA			no binding	no binding
rTPO VI mut2 (dsDNA) DNA 1: AGCTCAGGCCTCTCCTCAGGTGGGGTTGACCAAGT DNA 2: TCGAACTTGGTCAACCCCACCTGAGGAGAGGCCTG	binds	binds		
rTPO II (dsDNA) DNA 1: AGCTTTGCAGTGGGGAAGAGATAA DNA 2: TCGATTATCTCTTCCCCACTGCAA	no binding	no binding		
rTPO VI (dsDNA) DNA 1: AGCTCAGGCCTCTCCTCAGGTGGGTCCTCCCAAGT DNA 2: TCGAACTTGGGAGGACCCACCTGAGGAGAGGCCTG	binds	binds		
rTPO III mut5 (dsDNA) DNA 1: AGCTTCGTTTCAGAAAGTCAGCAGAATACT DNA 2: TCGAAGTATTCTGCTGACTTTCTGAAACGA	binds	binds		
rTPO III mut1 (dsDNA) DNA 1: AGCTGATAATCAGAAAGTCAGCAGTTCTAG DNA 2: TCGACTAGAACTGCTGACTTTCTGATTATC	binds	binds		
rTPO III mut3 (dsDNA) DNA 1: AGCTGATAATCAGATTCGAAGCAGAATACT DNA 2: TCGAAGTATTCTGCTTCGAATCTGATTATC	no binding	no binding		
rTPO III mut4 (dsDNA) DNA 1: AGCTGATAAGATTCAAGTCAGCAGAATACT DNA 2: TCGAAGTATTCTGCTGACTTGAATCTTATC	binds	binds		
rTPO VI mut1 (dsDNA) DNA 1: AGCTCAGGCCTCTCCTCAGGTGGGTCCTCATGGCT DNA 2: TCGAAGCCATGAGGACCCACCTGAGGAGAGGCCTG	binds	binds		
rTPO VI mut3 (dsDNA) DNA 1: AGCTCAGGCCTCTCCTCAGACTAATCCTCCCAAGT DNA 2: TCGAACTTGGGAGGATTAGTCTGAGGAGAGGCCTG	binds	binds		
rTPO III (dsDNA) DNA 1: AGCTGATAATCAGAAAGTCAGCAGAATACT DNA 2: TCGAAGTATTCTGCTGACTTTCTGATTATC	binds	binds		
